In IntAct's records for PubMed 18337722:

B1: Ataxin-1 (Homo sapiens), P54253 (parent)
chain: MKSNQERSNECLPPKKREIPATSRSSEEKAPTLPSDNHRVEGTAWLPGNPGGRGHGGGRHGPAGTSVELGLQQGIGLHKALSTGLDYSPPSAPRSVPVATTLPAAYATPQPGTPVSPVQYAHLPHTFQFIGSSQYSGTYASFIPSQLIPPTANPVTSAVASAAGATTPSQRSQLEAYSTLLANMGSLSQTPGHKAEQQQQQQQQQQQQHQHQQQQQQQQQQQQQQHLSRAPGLITPGSPPPAQQNQYVHISSSPQNTGRTASPPAIPVHLHPHQTMIPHTLTLGPPSQVVMQYADSGSHFVPREATKKAESSRLQQAIQAKEVLNGEMEKSRRYGAPSSADLGLGKAGGKSVPHPYESRHVVVHPSPSDYSSRDPSGVRASVMVLPNSNTPAADLEVQQATHREASPSTLNDKSGLHLGKPGHRSYALSPHTVIQTTHSASEPLPVGLPATAFYAGTQPPVIGYLSGQQQAITYAGSLPQHLVIPGTQPLLIPVGSTDMEASGAAPAIVTSSPQFAAVPHTFVTTALPKSENFNPEALVTQAAYPAMVQAQIHLPVVQSVASPAAAPPTLPPYFMKGSIIQLANGELKKVEDLKTEDFIQSAEISNDLKIDSSTVERIEDSHSPGVAVIQFAVGEHRAQVSVEVLVEYPFFVFGQGWSSCCPERTSQLFDLPCSKLSVGDVCISLTLKNLKNGSVKKGQPVDPASVLLKHSKADGLAGSRHRYAEQENGINQGSAQMLSENGELKFPEKMGLPAAPFLTKIEPSKPAATRKRRWSAPESRKLEKSEDEPPLTLPKPSLIPQEVKICIEGRSNVGK
partner: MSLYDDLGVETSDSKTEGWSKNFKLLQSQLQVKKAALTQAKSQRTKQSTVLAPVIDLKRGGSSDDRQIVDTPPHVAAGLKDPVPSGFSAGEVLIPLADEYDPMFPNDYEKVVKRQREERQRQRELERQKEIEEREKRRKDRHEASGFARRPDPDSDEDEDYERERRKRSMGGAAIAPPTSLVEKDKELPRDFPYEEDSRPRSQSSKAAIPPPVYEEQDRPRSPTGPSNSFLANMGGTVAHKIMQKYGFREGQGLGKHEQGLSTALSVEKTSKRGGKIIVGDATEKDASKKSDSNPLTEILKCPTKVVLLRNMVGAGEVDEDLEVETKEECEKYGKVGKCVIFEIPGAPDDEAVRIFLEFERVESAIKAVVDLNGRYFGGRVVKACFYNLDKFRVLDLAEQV

Variants of: B1
Details: with spf45_human RBM17, Q96I25

| Variant | effect of a mutation on the interaction |
| --- | --- |
| S775A | disrupting interaction strength |
